The record followed here is patent publication US20160220669A1.

Common to all, as to test: cell-based or functional assay
For assay [1], the target named is human wildtype CSF-1R (full-length) (human) (UniProt P07333).
Assay [2] has as its target human mutant CSF-1R L301S Y969F (human) (UniProt P07333).
Assay [3] deals with CSF-1R of cynomolgous monocytes (cynomolgous).

In the case of “Anti CSF-1R SC 2-4A5 (Santa Cruz Biotechnology, US) (antibody)”, in assay [1], the % inhibition 10 µg/ml antibody concentration (BeWo cells, CSF-1 induced growth) turned out to be 39%; the wtCSF-1R IC30 (cell viability, CellTiterGlo, 3D culture) was determined as 16.6 µg/mL; the wtCSF-1R IC50 (cell viability, CellTiterGlo, 3D culture) was 10 µg/mL. In addition, in assay [2], the Mutant CSF-1R IC30 (cell viability, CellTiterGlo, 3D culture) came out at 2.56 µg/mL and the Mutant CSF-1R IC50 (cell viability, CellTiterGlo, 3D culture) was found to be 10 µg/mL. Moreover, in assay [3], the % survival (cynomolgous monocytes with huCSF-1, 5 µg/ml antibody) was found to be 31%.
Regarding “goat polyclonal anti-CSF-1R antibody ab10676 (abcam)”, the wtCSF-1R IC30 (cell viability, CellTiterGlo, 3D culture) in assay [1] worked out at 14.2 µg/mL. In addition, the Mutant CSF-1R IC30 (cell viability, CellTiterGlo, 3D culture) in assay [2] was > 20 µg/mL.
